Tests used:
[1] = target: cynomolgus LPL on HEK293 cells (cynomolgus); test: cell-based or functional assay
[2] = target: rat LPL on HEK293 cells (rat) (UniProt Q06000); test: cell-based or functional assay
rat LPL on HEK293 cells (rat), sequence (Q06000 28-474): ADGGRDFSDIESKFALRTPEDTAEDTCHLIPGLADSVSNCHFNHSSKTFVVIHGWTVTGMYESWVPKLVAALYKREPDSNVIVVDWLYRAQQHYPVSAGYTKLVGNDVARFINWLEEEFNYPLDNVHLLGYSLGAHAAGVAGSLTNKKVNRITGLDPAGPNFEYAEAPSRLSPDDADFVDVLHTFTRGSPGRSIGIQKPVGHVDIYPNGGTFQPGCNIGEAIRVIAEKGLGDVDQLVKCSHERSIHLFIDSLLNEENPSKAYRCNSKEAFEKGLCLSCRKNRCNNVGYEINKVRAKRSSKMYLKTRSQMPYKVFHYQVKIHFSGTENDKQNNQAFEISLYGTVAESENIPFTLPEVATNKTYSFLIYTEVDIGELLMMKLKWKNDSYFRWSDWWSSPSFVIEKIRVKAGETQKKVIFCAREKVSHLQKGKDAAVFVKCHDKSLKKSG

IC80 concentration (inhibition of LPL activity) [1] [nM] | IC80 concentration (inhibition of LPL activity) [2] [nM] | Substance
0.38 | – | cyno ANGPTL3/8 complex (from UniProt A0A2K5UDC5 17-460)
– | 0.81 | rat ANGPTL3/8 complex (from UniProt F7FHP0 17-446)
